Patent US20180030434A1 (Genentech, published 2018)

T1: human VEGF (8-109) (human, UniProt P15692 214-315, ALEXA FLUOR 488 or ALEXA FLUOR 647 succinimidyl ester label in the flow cytometry experiments)
T1 construct: range 8-109; The SPR section says only 'human VEGF'; also called VEGF antigen
T1 sequence (looked up): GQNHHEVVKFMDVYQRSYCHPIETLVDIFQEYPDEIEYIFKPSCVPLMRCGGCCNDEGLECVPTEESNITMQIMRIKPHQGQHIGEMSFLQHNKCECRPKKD


Experiments:
[1] = molecular target: T2, Unizyme-tagged human IL-13 (33-146) (human, UniProt P35225 33-146, ALEXA FLUOR 488 or ALEXA FLUOR 647 succinimidyl ester label in the staining and flow cytometry experiments); experiment: SPR (Biacore 3000), half-antibody from E. coli periplasmic extract captured by Fab Binder, human IL-13 as analyte, 25 C
T2 construct: range 33-146; The SPR section says only 'Human IL-13'; also called huIL-13; IL-13 antigen; not shown: Unizyme tag

human VEGF (8-109) = molecular target: T1, human VEGF (8-109); experiment: flow cytometry (SSC against labeled VEGF) of the anti-VEGF spiking experiment, bacterial antibody display; no unstained control is drawn in these panels
Description: For bacterial display, antibodies were expressed in a Lpp deletion (Δlpp) of strain 62A7. […] After 24 hours at 30° C., 1 OD aliquots were harvested and pelleted by centrifugation (4 minutes, 6500 rcf). Cells were resuspended in 100 μL PBS pH 7.4 with 2% BSA and 5 mM EDTA and incubated at 4° C. for 30 minutes. After initial incubation, SYTO® 41 or 9 nucleic acid stain (Molecular Probes, USA) was added to a final dilution of 1:100, and ALEXA⁴⁶⁸- or ALEXA⁶⁴⁷-labeled antigen added to a final concentration of 1-2 μM. Incubation was continued at 4° C. in darkness for 1 hour, at which time MgCl₂ was added to 10-20 mM final concentration. Unbound proteins were removed by washing 3 times with 1 mL volumes of PBS pH 7.4+20 mM MgCl₂. […] The FACS™ gating strategy included cells that were SYTO® dye-positive. Doublet discrimination gates were used to remove doublets and finally antigen-positive cells were sorted.

T2 sequence (P35225 33-146, form in doubt): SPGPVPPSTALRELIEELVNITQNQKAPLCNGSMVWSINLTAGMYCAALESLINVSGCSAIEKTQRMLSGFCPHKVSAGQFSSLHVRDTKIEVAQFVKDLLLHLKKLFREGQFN

Row | Binder | Kd [1] | koff [1] | kon [1] | binding result (human VEGF (8-109))
1 | anti-IL-13 half-antibody WT (antibody, V domains shown, Half-antibody (one heavy and one light chain, knobs-into-holes Fc); Expressed in the E. coli periplasm; for SPR captured from periplasmic extract; also called anti-IL-13 WT; Half-Ab) VH: QVTLRESGPALVKPTQTLTLTCTVSGFSLSAYSVNWIRQPPGKALEWLAMIWGDGKIVYNSALKSRLTISKDTSKNQVVLTMTNMDPVDTATYYCAGDGYYPYAMDNWGQGSLVTVSS VL: DIVMTQSPDSLSVSLGERATINCRASKSVDSYGNSFMHWYQQKPGQPPKLLIYLASNLESGVPDRFSGSGSGTDFTLTISSLQAEDVAVYYCQQNNEDPRTFGGGTKVEIK | 40 pM | 5.09e-05 s⁻¹ | 1.3e+06 M⁻¹ s⁻¹ | no binding
2 | anti-IL-13 half-antibody framework variant E6Q (heavy chain) (antibody, name in Kabat numbering, V domains shown, Half-antibody) VH: QVTLRQSGPALVKPTQTLTLTCTVSGFSLSAYSVNWIRQPPGKALEWLAMIWGDGKIVYNSALKSRLTISKDTSKNQVVLTMTNMDPVDTATYYCAGDGYYPYAMDNWGQGSLVTVSS VL: DIVMTQSPDSLSVSLGERATINCRASKSVDSYGNSFMHWYQQKPGQPPKLLIYLASNLESGVPDRFSGSGSGTDFTLTISSLQAEDVAVYYCQQNNEDPRTFGGGTKVEIK | 38 pM | 4.26e-05 s⁻¹ | 1.13e+06 M⁻¹ s⁻¹ | 
3 | anti-IL-13 half-antibody framework variant F27L (heavy chain) (antibody, name in Kabat numbering, V domains shown, Half-antibody) VH: QVTLRESGPALVKPTQTLTLTCTVSGLSLSAYSVNWIRQPPGKALEWLAMIWGDGKIVYNSALKSRLTISKDTSKNQVVLTMTNMDPVDTATYYCAGDGYYPYAMDNWGQGSLVTVSS VL: DIVMTQSPDSLSVSLGERATINCRASKSVDSYGNSFMHWYQQKPGQPPKLLIYLASNLESGVPDRFSGSGSGTDFTLTISSLQAEDVAVYYCQQNNEDPRTFGGGTKVEIK | 34 pM | 4.43e-05 s⁻¹ | 1.3e+06 M⁻¹ s⁻¹ | 
4 | anti-IL-13 half-antibody framework variant M4L (light chain) (antibody, name in Kabat numbering, V domains shown, Half-antibody) VH: QVTLRESGPALVKPTQTLTLTCTVSGFSLSAYSVNWIRQPPGKALEWLAMIWGDGKIVYNSALKSRLTISKDTSKNQVVLTMTNMDPVDTATYYCAGDGYYPYAMDNWGQGSLVTVSS VL: DIVLTQSPDSLSVSLGERATINCRASKSVDSYGNSFMHWYQQKPGQPPKLLIYLASNLESGVPDRFSGSGSGTDFTLTISSLQAEDVAVYYCQQNNEDPRTFGGGTKVEIK | 29 pM | 3.16e-05 s⁻¹ | 1.11e+06 M⁻¹ s⁻¹ | 
